From IntAct's records for PubMed 25910212

B1: 5-aminolevulinate synthase, erythroid-specific, mitochondrial (Homo sapiens), P22557-2 (parent)
chain: MVTAAMLLQCCPVLARGPTSLLGKVVKTHQFLFGIGRCPILATQGPNCSQIHLKATKAGGDSPSWAKGHCPFMLSELQDGKSKIVQKAAPEVQEDVKAFKTGNYVFSYDQFFRDKIMEKKQDHTYRVFKTVNRWADAYPFAQHFSEASVASKDVSVWCSNDYLGMSRHPQVLQATQETLQRHGAGAGGTRNISGTSKFHVELEQELAELHQKDSALLFSSCFVANDSTLFTLAKILPGCEIYSDAGNHASMIQGIRNSGAAKFVFRHNDPDHLKKLLEKSNPKIPKIVAFETVHSMDGAICPLEELCDVSHQYGALTFVDEVHAVGLYGSRGAGIGERDGIMHKIDIISGTLGKAFGCVGGYIASTRDLVDMVRSYAAGFIFTTSLPPMVLSGALESVRLLKGEEGQALRRAHQRNVKHMRQLLMDRGLPVIPCPSHIIPIRVGNAALNSKLCDLLLSKHGIYVQAINYPTVPRGEELLRLAPSPHHSPQMMEDFVEKLLLAWTAVGLPLQDVSVAACNFCRRPVHFELMSEWERSYFGNMGPQYVTTYA
partner: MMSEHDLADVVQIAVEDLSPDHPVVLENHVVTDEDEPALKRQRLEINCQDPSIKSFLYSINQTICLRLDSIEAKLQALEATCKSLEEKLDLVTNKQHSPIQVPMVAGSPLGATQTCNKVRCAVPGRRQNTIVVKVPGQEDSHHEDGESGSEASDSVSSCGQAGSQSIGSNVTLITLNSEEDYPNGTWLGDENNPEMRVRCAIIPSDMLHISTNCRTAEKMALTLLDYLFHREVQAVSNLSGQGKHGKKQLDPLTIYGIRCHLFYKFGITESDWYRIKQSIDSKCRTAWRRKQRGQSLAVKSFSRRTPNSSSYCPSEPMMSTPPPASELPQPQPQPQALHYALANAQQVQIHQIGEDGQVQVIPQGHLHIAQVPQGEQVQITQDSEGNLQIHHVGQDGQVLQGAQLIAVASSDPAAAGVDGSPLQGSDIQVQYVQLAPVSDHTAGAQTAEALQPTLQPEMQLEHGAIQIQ
B2: Tyrosine-protein kinase BTK (Homo sapiens), Q06187 (parent)
chain: MAAVILESIFLKRSQQKKKTSPLNFKKRLFLLTVHKLSYYEYDFERGRRGSKKGSIDVEKITCVETVVPEKNPPPERQIPRRGEESSEMEQISIIERFPYPFQVVYDEGPLYVFSPTEELRKRWIHQLKNVIRYNSDLVQKYHPCFWIDGQYLCCSQTAKNAMGCQILENRNGSLKPGSSHRKTKKPLPPTPEEDQILKKPLPPEPAAAPVSTSELKKVVALYDYMPMNANDLQLRKGDEYFILEESNLPWWRARDKNGQEGYIPSNYVTEAEDSIEMYEWYSKHMTRSQAEQLLKQEGKEGGFIVRDSSKAGKYTVSVFAKSTGDPQGVIRHYVVCSTPQSQYYLAEKHLFSTIPELINYHQHNSAGLISRLKYPVSQQNKNAPSTAGLGYGSWEIDPKDLTFLKELGTGQFGVVKYGKWRGQYDVAIKMIKEGSMSEDEFIEEAKVMMNLSHEKLVQLYGVCTKQRPIFIITEYMANGCLLNYLREMRHRFQTQQLLEMCKDVCEAMEYLESKQFLHRDLAARNCLVNDQGVVKVSDFGLSRYVLDDEYTSSVGSKFPVRWSPPEVLMYSKFSSKSDIWAFGVLMWEIYSLGKMPYERFTNSETAEHIAQGLRLYRPHLASEKVYTIMYSCWHEKADERPTFKILLSNILDVMDEES
B3: Interleukin-1 alpha (Homo sapiens), P01583 (parent)
chain: MAKVPDMFEDLKNCYSENEEDSSSIDHLSLNQKSFYHVSYGPLHEGCMDQSVSLSISETSKTSKLTFKESMVVVATNGKVLKKRRLSLSQSITDDDLEAIANDSEEEIIKPRSAPFSFLSNVKYNFMRIIKYEFILNDALNQSIIRANDQYLTAAALHNLDEAVKFDMGAYKSSKDDAKITVILRISKTQLYVTAQDEDQPVLLKEMPEIPKTITGSETNLLFFWETHGTKNYFTSVAHPNLFIATKQDYWVCLAGGPPSITDFQILENQA
B4: EF-hand domain-containing protein 1 (Homo sapiens), Q5JVL4 (parent)
chain: MVSNPVHGLPFLPGTSFKDSTKTAFHRSQTLSYRNGYAIVRRPTVGIGGDRLQFNQLSQAELDELASKAPVLTYGQPKQAPPADFIPAHVAFDKKVLKFDAYFQEDVPMSTEEQYRIRQVNIYYYLEDDSMSVIEPVVENSGILQGKLIKRQRLAKNDRGDHYHWKDLNRGINITIYGKTFRVVDCDQFTQVFLESQGIELNPPEKMALDPYTELRKQPLRKYVTPSDFDQLKQFLTFDKQVLRFYAIWDDTDSMYGECRTYIIHYYLMDDTVEIREVHERNDGRDPFPLLMNRQRVPKVLVENAKNFPQCVLEISDQEVLEWYTAKDFIVGKSLTILGRTFFIYDCDPFTRRYYKEKFGITDLPRIDVSKREPPPVKQELPPYNGFGLVEDSAQNCFALIPKAPKKDVIKMLVNDNKVLRYLAVLESPIPEDKDRRFVFSYFLATDMISIFEPPVRNSGIIGGKYLGRTKVVKPYSTVDNPVYYGPSDFFIGAVIEVFGHRFIILDTDEYVLKYMESNAAQYSPEALASIQNHVRKREAPAPEAESKQTEKDPGVQELEALIDTIQKQLKDHSCKDNIREAFQIYDKEASGYVDRDMFFKICESLNVPVDDSLVKELIRMCSHGEGKINYYNFVRAFSN
partner: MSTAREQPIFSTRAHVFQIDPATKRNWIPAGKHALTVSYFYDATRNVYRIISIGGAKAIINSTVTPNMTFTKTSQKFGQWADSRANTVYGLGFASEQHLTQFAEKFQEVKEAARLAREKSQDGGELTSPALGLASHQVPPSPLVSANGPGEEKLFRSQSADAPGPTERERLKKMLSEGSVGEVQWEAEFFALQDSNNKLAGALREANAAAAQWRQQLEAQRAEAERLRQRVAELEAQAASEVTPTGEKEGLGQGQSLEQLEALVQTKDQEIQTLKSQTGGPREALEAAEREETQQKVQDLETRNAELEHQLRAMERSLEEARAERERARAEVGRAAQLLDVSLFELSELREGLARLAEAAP

Variants of: B1
Settings: with BANP

Variant | effect of a mutation on the interaction
I252T | disrupting interaction strength
R411Q | disrupting interaction strength
R133H | with no effect
I439N | disrupting interaction strength

Variants of: B2
Settings: with meox2_human MEOX2, P50222
Target sequence in this assay (P50222 whole entry): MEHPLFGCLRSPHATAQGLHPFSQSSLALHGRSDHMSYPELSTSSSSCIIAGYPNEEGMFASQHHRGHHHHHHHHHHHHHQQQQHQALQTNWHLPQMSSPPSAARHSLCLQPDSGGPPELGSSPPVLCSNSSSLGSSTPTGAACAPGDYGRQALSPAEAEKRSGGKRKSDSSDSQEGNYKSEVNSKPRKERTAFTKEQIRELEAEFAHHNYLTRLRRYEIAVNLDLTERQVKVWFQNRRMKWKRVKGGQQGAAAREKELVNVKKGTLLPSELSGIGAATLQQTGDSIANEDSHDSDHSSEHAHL

Variant | effect of a mutation on the interaction
P565L | disrupting interaction strength

Variants of: B3
Settings: with ima7_human KPNA6, O60684

Variant | effect of a mutation on the interaction
A114S | with no effect
S113A | with no effect

Variants of: B3
Settings: with meox2_human MEOX2, P50222
Target sequence in this assay (P50222 whole entry): as the sequence (P50222 whole entry) above

Variant | effect of a mutation on the interaction
A114S | with no effect
S113A | with no effect

Variants of: B4
Settings: with home3_human HOMER3, Q9NSC5

Variant | effect of a mutation on the interaction
R159W | with no effect
